According to a protein production outcome set (Wang et al. 2014):

Experiment: label from the status in PepcDB records

Sequence | protein production
MKTNAGRFFEDYRLGETIAHAVPRTVSGGERALYHALYPARHALSSSDEFARACGLPAAPVDELMAFHLVFGKTVPDISLNAVANLGYAEGRWLKPVFPGDTLRAESTVIGLKENSNGASGVVWVRTRGLNQQGEAVLSYVRWVMVRKRDTAAPAPAPTVPELAGSVAASDLVIPEGLSFTDYDLTLAGEPHRWGDYAVGEKIDHVDGVTVEESEHMLATRLWQNTAKVHFDATNRPDGRRLIYGGHVISLARTLSFNGLANAQMIVALNAGAHANPCFAGDTVRAWSEVLDKAETADPGVGALRLRLVAMKHGTEPFVTRSEDGKYLPGVLLDLDYWALVPR | failed
MATKNSAPLASFIDLLLDAVCAVDVEGRFVFVSAACERVFGYTADELIGRPMIELVHPADRERTLQAAREIMGGVPKPNFENRYVRKDGRVAHILWSARWSEVDQLRIAVARDITERKQAESRQAALYAISEAAHATEDLLVLFRHVHRIIGEWLPALNCSLALYDERSASLSFPYHVDDCEGSPELPGTLIERFCVEVLQCGQPLLLAPECPVNRVLWSEFAAIQGSRCWLGVPLNSQKGTIGVLMVKSAPGTESYSEQDQELLQYVSAQLAAAIERKQLHARLHYMAEYDQLTHLPNRELLRERLRSALARARRESGRMALLYVDLDKFKEVNDTCGHAVGDMLLQAVANRLKGCVRETDTVARIGGDEFVILLESVQHSEDAQRVAEKIRRTLGEPLRLDGHSLNILPSIGIGLYPEHGLEEKQLFKHADEAMYAVKRAQKSRSNA | failed
MYKVGIVLFDDFTDVDFFLMNDLLGRTSDSWTVRILGTKPEHHSQLGMTVKTDGHVSEVKEQDVVLITSGYRGIPAALQDENFMSALKLDPSRQLIGSICAGSFVLHELGLLKGKKLTTNPDAKAVLQGMGGDVQDLPLVIEGNIATAGGCLSLLYLVGWLAERLFDSVKRKQIQNQLIPAGQMEIFETLISETIQSAESAYEYRSACESDAESLVV | not failed
MSSMVEVEHWNTLRLRIYIGENDKWEGRPLYKVIVEKLREMGIAGATVYRGIYGFGKKSRVHSSDVIRLSTDLPIIVEVVDRGHNIEKVVNVIKPMIKDGMITVEPTIVLWVGTQEEIKKFEEDAIAERQ | not failed
AQDLYQNLESKVAQKTREVEEQNLRLKTLYDMTSFLHQQRALDETCQGFIRRLMQLTGADAANARLVDPERGKLDQIAQQGLPAEMALNEECIPDDACHCGEAVQQPFAVLRHIGELEGEEIRHCRKAGFASIAVFHIRNQREDVGIFTLYFRQKRVLSMAEQMLIETLGQHLGVAIEN | failed
MPILTISGSPSAPSRSARLLGHVRAQLERAGESADHLDLRALPADALLGAQTAHPAIAEALARVAAAGVVILATPVYQAAYSGLLKTFLDLLPQSGLRDKVVLPIATGGSLAHTLAIDYALRPVLSSLAARVILPGIFAADAQIGAADDGFAVDPALQQRLDDGIERVHQAIALARHPAVAQVIVASRRTVRSAFQAHANAQATDAQQRMRCPA | failed
MDQFEYIITLEFGNQNQVESAYQIFKSIPKKLKAKSIGEESIKSNNQDWQDWRVCDLEIDMITDFKNQTSKEEESDLITSQYLGHGIIRLFKLSNANNTLNEKEILTIPGDDTMICILFVPTYFTVHDLLHFYIGDDIVNKQVSNFRILRNQQKGMGFNFTVLIKFRNALDAKNFKEEFNGKSFSRMDPETCHVISVKEIVFQKKLFQRPAANEDFPYLLTDPFTVKKKKELVKVELPTCPVCLERMDSETTGLVTIPCQHTFHCQCLNKWKNSRCPVCRHSSLRLSRESLLKQAGDSAHCATCGSTDNLWICLICGNVGCGRYNSKHAIKHYEETLHCFAMDIRTQRVWDYAGDNYVHRLVQNEVDGKLVEVGGSGDDDNNDIGNSDELQNVVYGNRSKNGEKSNSNKKDGELAANFLRHREYHLEYVQVLISQLESQREYYELKLQEKDQTASDSSNVESLKKSMEDLKLQFQVTQKEWQKREMAQKSKLEEDMLVIEGLQANLDHLSKKQEQLERENKALEESKQDLEEQVKDLMFYLDSQEKFKDADESVKEGTILIQQPHGAAQASKSKKKRNKNKKAGK | failed
MKLTDRLLKIASLVSDGKKIADIGTDHGYIPVYLLKEGKVPFAVLADVNKGPLDNAHKEVIQNNLLDKVDLRLGSGIEILEIGEVEEVIIAGMGGILISELLEAKKEVAHNVEKLILQPMQAQEELRYYLLNNGYEILEEVLVREDFRIYEIIVAKYTGKNTIIEDEIYYEVGIKLLENKDSLFNDFIEKKIKTYSSIVNKLEGKNGEAIDKKRKESEVAIKKLENLIK | not failed
VGPHAALMDATYRHQRRIYDITRRHFLLGRDELIAALAPPPGARVLEIACGTGRNLDLIDRRWPGLRLYGLDISEEMLRTARARLGTRARLAQGDATDFDARALFGAARFERIVISYALSMIPDWRPALAHAASLLSKEGELHVVDFGDQAGLPRWFRTGLRGWIGRFHVEPRDDLGAALAEVAAGVG | failed
MTHTTANQVIHYVDQDGNTVFDDNDSQTLDYERSVTIDEVTGEITAYGDWKAVDGDEFGSVTSSDKPGYAIDKPVVSGEKPTITNGKDGKVSDVEVTVTYTALEHHHHHH | not failed
MSDNALTSSRRFGGIARLYGDSALAHFSQAHVCVVGVGGVGSWAVEALARTGIGRLTLIDLDNVAESNVNRQLHALTGDFGKAKVTALRERITQINPQCEVFEIEDFVTEDNLPEYFGKGFDFVIDAIDQVRVKAAMAAYFVERKQPFVLSGGAGGQKNPALIQTADLSRVTHDPLLANLRYTLRKRYGFSRDTKANMRVPCVYSTENIVPPQSREACSADAAPQGLSCAGYGASMLVTASFGLYCAQAAVEHIADKKLEHHHHHH | not failed
MYQTIEGFLQSWTYETESTQKMLDVLTDESLSQEIAPGHWTLGRVAWHIVTAIPVILSGTGLKFEGETKDYPVPTSAKTIADGYRKVNTAFVEALQSEWTDKDLTTINDFFGRPMPNSIFLMTLINHQNHHRGQMTVLMRQAGLTVPGVYGPAKEEWATAGMEAPKM | not failed
MRRKERRESMKKHRQLLALFICLVMSVSLLTGYSETKAATEEPTQSAEQDATQETAETREITDMAGRKVTVPTAENIESVFSAGPVAAIFLYMVVPDKLLGWNYELNDVEKSIILDKYQDLPNFGMGDAVNYEAVIAANPTIAINSGKINDAMVSDCDALSESLGIPVVAVDNELNNSAEAFRFMGELLGVEDHAEELAQYAEQVFTDINVLSDIPEEKKVSVYFGNGEDSLETAPRGSQHAQILDAINAVNVADLELGDGSRVQISAEQLLAWDPDVIVVNGEPKADKSGSSAAEDILSNPDYASLKAVQDQKVYGTPNAPFSWVDRPAGPNRLIGMRWFSALIYPEYIKCDINEEIHKFFDLFYHVDLSDEQLENVLKGTL | failed
AIAEEDEFIGEKTFQRYCAEFIKHSQQIGDSWEWRPSKDCSDGYMCKIHFQIKNGSVMSHLGASTHGQTCLPMEEAFELPLDDCEVIETAAASEVIKYEYHVLYSCSYQVPVLYFRASFLDGRPLTLKDIWEGVHECYKMRLLQGPWDTITQQEHPILGQPFFVLHPCKTNEFMTPVLKNSQKINKNVNYITSWLSIVGPVVGLNLPLSYAKATSQDERNVP | failed
MAVDWERRIDFDRLRTQRLTRALDALERSELGALLLFDMNNIRYTTATHIGNWARDKLFRMALLIRGQAPILWDIGSAARLHQMQAPWLPQESWRAGLSTWRGAIDDEVGVQTGNAKKVADLLREHGLANDPVGVDVVELPMLKALEAEGLTIVDGQGLMLDVRSIKTVDEIALLDHAAACVDAAYEELYKFLRVGVKENETVALVNKVLYELGSEEVEAVNAISGERCSPHPHVFSDRMIRPMDTAYFDIVHSYMGYRTCYYRTLNVAGATRAQRDAYKRAREYIDLAISEVKPGVLTSDIVKHFPAAQEFGFASEEEAFGLQYCHGVGLSVWEKPLMSRYHSFDHPVEIKEGMVFALETYWPTADGSSAARIEEEVEVTATGARVITRFPADELLVAGTRYWNGFDFPEIKAPIGRGVASGVAATNGAGAS | failed
MDKIHAMQLFIRVADLESFSRAAETLALPKGSVSRQIQALESHLGVRLLHRTTRRVQLTQDGMVYYERAKDLLSNLDELDGMFQHDPASISGRLRVDMPVGFAKKMVIPHLPTFLQQYPGIELELSSSDRQVDVIREGFDCVVRVGALKDSGLIARPLGKLTQINCASPDYLARFGYPQSLEDLADHALIHYASTLGVRPPGFEVMIDGAVRWVKTGGILTVNSTETYQAACIAGLGIIQVPRTGVREALRAGDLIEILPQYRAEPLPVSLIYPHRRNLSRRVNLFMEWLGGLMKAYVD | failed
MTEMELKLIKIDTSHYFEKKPGLGERVDYAGRCFYNKFQRVNAMLTSSLIQKHLKREIEIAHNLILRNDKVENIVFDYNGRNPERFYHKAQLLLREEGFMNFTAYNTKTPGHLHLYVHKGHTELGEGERLVKTLSMKLAQGLPKEWKVFPSNEWPKEFNILALPYEVFAKERGSSWAKHL | not failed
MLKTPSDAAVAGCLSLLLEVSGNPKAGNVDREHDFDDLKFEHFLASAAGAFPAFLEVAEKRIIGEGVLRAVKESMRWHRAENVHFGAFLLLVPLISSWDAG | not failed
MNILYNERIDGVLPAVDKQQLLDELRRQLPDLDVLHRTEELRPYECDGLSAYRTTPMLVVLPRHLEEVQTLLRLCHAHRVPVVARGAGTGLSGGALPLEKGVLLVMARFNQILAIDPAARVARVQPGVRNLAISQAAAPHGLYYAPDPSSQIACSIGGNVAENAGGVHCLKYGLTVHNLLKVEILTVEGEAMTLGSDTLDSPGFDLLALFTGSEGMLGIITEVTVKLLPRPQVAKVLLAAFDSVEKAGRAVADIIAAGIIPGGLEMMDNLAIRAAEDFIHAGYPVDAEAILLCELDGVEADVHADCERVREVLTQAGATEVRQAIDEAERVRFWAGRKNAFPAVGRLSPDYYCMDGTIPRRALPGVLRGISELSGQYGLRVANVFHAGDGNMHPLILFDANQPGELQRAEALGGKILELCVEVGGSITGEHGVGREKINQMCAQFNSDELTFFHAIKAAFDASGMLNPGKNIPTLQRCAEFGAMHIHAGQLPFPELERF | failed
MADKTGTPHPLTEPGVWIERIGGRVFPPHLPALFLDRDGTINVDTDYPSDPAEIVLRPQMLPAIATANRAGIPVVVVTNQSGIARGYFGWSAFAAVNGRVLELLREEGVFVDMVLACAYHEAGVGPLAIPDHPMRKPNPGMLVEAGKRLALDLQRSLIVGDKLADMQAGKRAGLAQGWLVDGEAAVQPGFAIRPLRDSSELGDLLAAIETLGRDNRS | not failed
MKSKIFSTSLAFAFLLLITTVASAGQEIQITPYGERGLNPAIYDNKIAWLDKYINGSLHLRDLSTGKEIQITEDPWYSYLAVYNDKIVWGPGGQNIYLYNISTNHKTLLSIPESENQGSRDSLTIYGDKIVWRDQSGGYQDIYMYDLSTYNKTRITTNQSTKDPVIYGDKIVWQEDPSFGFGSSYHDIYVYNLSTSNKTRVTTNRSASSPNVYGDRIVYMESNNIYFHNLSTSLETQITFNGSRKDKLAIYGDRIVWQDDRNGNWDVYVYDLSEDKEIQITNDESDQLNPAIYGDKIVWEDYRNDRENMYYCSIYMYDFSAKPTMPFASFSANITSKSGNMPLTVLFTCNSTGGTPTSWYWDFGDGINSKHAQTATHTFKKPGTYDVSLTVTNFAGNSTLKKSNYITVTPQQAPIADFFSPEVYHANTYGGSVPTKTVSFVDNSTGSPTSWLWDFGDGNTSTEQNPTHVYDVEGGYTVNLTVKNVVGSNTTSKYGYVLVGLGDGSVAPEYFSSSVTSGDAPLKVTFHGGTGYANDWTFGDGSRQSVGENQTVEHTYLEPGQYTVSLSEYNVGGTAAITKYHYITVTGLTRPVASFTSEKVSVPMSLTIAFTDTSIGKPTSWYWDFGDGDSSTEQNPTHTYSAAGNYTVSLTASNENSTNSTFRVIDVFKTTGPFAYVISGNNISVIDTATDKVVDTIEIGSGLVGVAVNPTGTKVYVANEGNNTVSVIDTSISKVIATVNGLNSPYAIAITPDGKKAYVTNNSGAVFENGTVYVIDTGTSTVMNTVNVGSVPHGVAVSLDGAKVYVTNYYDISVIDTATNKVTATLNVGQYPDGIAVSPDGTKIYVTNGGSDNVSVIDTETNNVTATLPVGDNPVRVAVTPDGTKLYVTNYKGNTISVINTTTNTVTATIPGDGPYGVSITPDGKKVYVTNLGSDLSGKTVSVIDTAANTVIATVKVGSYPREVAVAPYGK | failed
